From publication PMC13462943

Key:
[1] = molecular target: T1, N-terminal histone H3 peptide (amino acid residues 1-20), P68431; assay: differential scanning fluorimetry; conditions: chain shown with the change; 500 µM histone H3 peptide; parent: est. 4.4; read off a plot
[2] = molecular target: T1, N-terminal histone H3 peptide (amino …); assay: native mass spectrometry; conditions: chain shown with the change, protein and substrate concentrations 5 µM
[3] = molecular target: T2, G9a methyltransferase domain (aa residues 913-1193), Del 1163-4, Q96KQ7-1; assay: native mass spectrometry (nESI-MS); conditions: chain shown with the change;; read off a plot
T2 chain: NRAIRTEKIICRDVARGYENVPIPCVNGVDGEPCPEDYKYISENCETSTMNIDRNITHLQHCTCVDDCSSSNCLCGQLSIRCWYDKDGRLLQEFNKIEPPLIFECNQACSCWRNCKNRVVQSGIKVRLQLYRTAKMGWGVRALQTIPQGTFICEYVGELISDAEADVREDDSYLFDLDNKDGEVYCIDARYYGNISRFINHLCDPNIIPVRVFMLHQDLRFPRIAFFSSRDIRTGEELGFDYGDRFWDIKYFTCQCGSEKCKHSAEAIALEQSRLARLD

B1: G9a methyltransferase domain (aa residues 913-1193), wild type, Q96KQ7-1 S1163del; K1164del (protein)
chain: T2 chain
other: ΔTm upon substrate addition [1]: 2.3 °C
other: relative abundance, 2x peptide bound ([2]; parent: 24): < 1
other: relative abundance, free protein ([2]; parent: 30): 88
other: relative abundance, 1x peptide bound ([2]; parent: 46): 11
ratio to parent [3]: 0.58
